Experiments:
rat α-CGRP (1-37) (rat) = experiment: Biacore 37 C, Fab over N-biotinylated rat α-CGRP on SA chip
[1] = biological target: human α-CGRP 1-37 (WT) (human); experiment: Biacore 25 C, Fab over N-biotinylated CGRP on SA chip
[2] = biological target: human α-CGRP fragment 25-37 (human); experiment: Biacore 25 C, Fab over N-biotinylated fragment on SA chip
[3] = biological target: human α-CGRP 1-37 (WT) (human); experiment: Biacore 37 C, Fab over N-biotinylated CGRP on SA chip

human α-CGRP 1-37 (WT) (human), sequence (peptide, as listed by the source): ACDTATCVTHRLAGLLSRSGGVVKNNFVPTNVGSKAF
rat α-CGRP (1-37) (rat), sequence (peptide, as listed by the source): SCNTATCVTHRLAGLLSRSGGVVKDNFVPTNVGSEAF

- Kd (rat α-CGRP (1-37) (rat)): 3.4 nM
- Kd [1]: 61 nM
- fold lower affinity than binding to full length human α-CGRP [2]: 6 fold
- Kd [3]: 139 nM
Substance: anti-CGRP monoclonal antibody 4901 (Sigma, Product No. C7113), Fab fragment

— patent US20180162931A1
